Assays:
[1] = target: T1, cynomolgus CD147 on the cynomolgus primary kidney epithelial cell line (cynomolgus monkey); assay: FACS on the cynomolgus primary kidney epithelial cell line, Alexa Fluor 647 anti-human IgG
T1 construct: whole, on cells; also called cynomolgus monkey CD147

[2] = target: T2, recombinant human CD147-Fc chimeric protein (R&D Systems, cat. no. 927-EMN-050), deglycosylated (human, UniProt P35613-2 25-205, deglycosylated of N- and simple O-linked carbohydrates (Protein Deglycosylation Mix II or Enzymatic Protein Deglycosylation Kit; migrated at 52 and 48 kDa)); assay: ELISA, deglycosylated CD147-Fc adsorbed at 1 ug/mL
T2 construct: Same bought protein as m6 after enzymatic deglycosylation; also called deglycosylated CD147-Fc fusion protein; deglycosylated CD147 antigen; not shown: Fc part of the bought chimeric protein
T2 sequence (looked up): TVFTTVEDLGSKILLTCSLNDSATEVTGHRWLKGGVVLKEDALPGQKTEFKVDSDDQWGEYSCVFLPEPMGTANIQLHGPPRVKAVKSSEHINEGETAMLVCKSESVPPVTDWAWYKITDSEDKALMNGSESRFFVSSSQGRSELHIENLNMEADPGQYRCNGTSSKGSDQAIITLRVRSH

[3] = target: T3, recombinant human CD147-Fc chimeric protein (R&D Systems, cat. no. 927-EMN-050), glycosylated (human, UniProt P35613-2 25-205, glycosylated (as supplied; migrated at about 62 kDa)); assay: ELISA, CD147-Fc adsorbed at 1 ug/mL
T3 construct: Bought protein; also called glycosylated CD147-Fc fusion protein; glycosylated CD147 antigen; not shown: Fc part of the bought chimeric protein
T3 sequence (looked up): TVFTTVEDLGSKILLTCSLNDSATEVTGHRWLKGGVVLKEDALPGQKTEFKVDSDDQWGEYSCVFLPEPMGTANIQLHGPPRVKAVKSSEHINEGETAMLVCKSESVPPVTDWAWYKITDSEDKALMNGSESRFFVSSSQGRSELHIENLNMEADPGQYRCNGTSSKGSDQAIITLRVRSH

B1: humanized anti-human CD147 hu3A11 antibody (3A11 Lc1 / Hc1) (antibody, V domains shown)
VH: EVQLVESGGGLVQPGGSLRLSCAASGFTFSNYWMDWVRQAPGKGLEWVGEIRLKSYNYATHYAASVKGRFTISRDDSKNSVYLQMNSLKTEDTAVYYCTAAGTDYWGQGTLVTVSS
VL: DIQMTQSPSSLSASVGDRVTITCRASQSVRTDVGWYQQKPGKAPKLLIYYSSNRYTGVPSRFSGSGSGTDFTLTISSLQPEDFATYYCQQDYSSPYTFGQGTKLEIK
notes: also called hu 3A11 Lc1 / Hc1; huHc1 / huLc1
Kd [1]: 1.3 nM | binding result [2]: binds | binding result [3]: binds
